Substitutions are numbered along the chain they refer to. Names and notes keep the numbering of the source. Where two headings read alike, the source gives them in different places. Values belong to the binder of their own block, whether it stands above or below them.
What was measured:
[1] = molecular target: T1, human CD137-human Fc fusion protein (human, UniProt Q07011 24-186); assay: ELISA of the purified antibody on coated plates
T1 construct: not shown: human IgG1 Fc of the pFUSE-hIgG1-Fc1 vector (InvivoGen, pfuse-hg1fc1)

[2] = molecular target: T2, monkey CD137-human Fc fusion protein (monkey; human, UniProt Q07011 24-186); assay: ELISA of the purified antibody on coated plates
T2 construct: not shown: human IgG1 Fc of the pFUSE-hIgG1-Fc1 vector (InvivoGen, pfuse-hg1fc1)
T2 chain: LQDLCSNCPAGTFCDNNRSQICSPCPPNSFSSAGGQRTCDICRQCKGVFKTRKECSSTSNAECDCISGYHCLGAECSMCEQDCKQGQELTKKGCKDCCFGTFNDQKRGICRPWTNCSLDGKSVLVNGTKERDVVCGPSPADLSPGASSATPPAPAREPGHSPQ

[3] = molecular target: T3, human CD137-His tag protein (R&D Systems, 9220-4B) (human, UniProt Q07011 24-186); assay: ELISA, human CD137-His tag protein immobilized on the plate, anti-human IgG Fc-HRP, A450-A570
T3 construct: Bought protein; not shown: His tag of the bought protein

[4] = molecular target: T3, human CD137-His tag protein (R&D …); assay: as above; remark: listed apart in the source
[5] = molecular target: T4, human CLDN4 expressed on CHO-K1 cells (human, UniProt O14493 1-209); assay: flow cytometry on human CLDN4 expressing CHO-K1, apparent KD
T4 construct: whole, on cells; also called human CLDN4 expressing CHO-K1
T4 sequence (looked up): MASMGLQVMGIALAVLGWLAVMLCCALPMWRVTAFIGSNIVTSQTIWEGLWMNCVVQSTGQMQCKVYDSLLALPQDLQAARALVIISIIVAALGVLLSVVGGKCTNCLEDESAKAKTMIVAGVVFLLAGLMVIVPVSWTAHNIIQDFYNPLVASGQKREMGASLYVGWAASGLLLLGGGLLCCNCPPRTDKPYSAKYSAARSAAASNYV

[6] = molecular target: T3, human CD137-His tag protein (R&D …); assay: ELISA, human CD137-His tag protein immobilized on the plate, anti-human IgG Fc-HRP, A450-A570; remark: listed apart in the source
[7] = molecular target: T3, human CD137-His tag protein (R&D …); assay: SPR, Biacore T200, antibody captured on Protein A chip, CD137 as analyte
[8] = molecular target: T5, monkey CD137-His tag-3×FLAG tag fusion protein (monkey); assay: as above
T5 construct: Residues 1-183 are the encoded extracellular region as stated; also called Monkey CD137-His-3 × FLAG
T5 chain: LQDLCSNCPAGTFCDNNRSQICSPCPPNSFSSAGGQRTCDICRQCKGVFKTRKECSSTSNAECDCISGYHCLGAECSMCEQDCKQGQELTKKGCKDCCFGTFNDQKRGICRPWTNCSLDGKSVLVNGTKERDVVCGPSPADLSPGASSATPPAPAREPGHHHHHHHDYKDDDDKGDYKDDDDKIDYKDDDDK

B5: anti-CLDN4 (hKM3900)/anti-CD137 scFv bispecific antibody hKM3900_tA2-73_S (bispecific antibody)
heavy (part 1 of 2): EVQLVQSGAEVKKPGASVKISCKASGYTFTDYYMNWVRQAPGQGLEWMGDVVPNNGVPTYNQKFKGRVTITADKSTSTAYMELRSLRSEDTAVYYCARPHYYYAGRSGAMDYWGQGTLVTVSS
heavy (part 2 of 2): QVQLQESGPGLVKPSETLSLTCTVSGGSISSYYWTWIRQPPGKCLELVGYIYYSGYTSYNPSLKSRVTISIDTSKNQFSLQLNSVTAADTAVYFCARDDYGGNGYYGVDVWGQGTTVTVSSGGGGSGGGGSGGGGSQSVLTQPPSASGTPGQRVTISCSGSSSNIGNNPVNWYRQLPGTAPKLLIYSNNQRPSGVPDRFSGSKSGTSASLAISGLQSEDEADYYCAAWDDSLNGWVFGCGTKLTVLG
light: DIQLTQSPSSLSASVGDRVTITCTASSTVSSTYLHWYQQKPGKAPKLLIYSTSNLASGVPSRFSGSGSGTDYTLTISSLQPEDFATYYCHQYHRSPPTFGQGTKLEIKRTVAAPSVFIFPPSDEQLKSGTASVVCLLNNFYPREAKVQWKVDNALQSGNSQESVTEQDSKDSTYSLSSTLTLSKADYEKHKVYACEVTHQGLSSPVTKSFNRGEC
notes: scFv at the heavy chain C-terminus; not shown: human IgG1 heavy chain constant region; mutation positions by EU index; GS linker
EC50 (read off the curve) [3]: ~10 ng/mL

B6: humanized anti-CLDN4 (hKM3900) antibody (antibody, V domains shown)
VH: B5 heavy (part 1 of 2)
VL: DIQLTQSPSSLSASVGDRVTITCTASSTVSSTYLHWYQQKPGKAPKLLIYSTSNLASGVPSRFSGSGSGTDYTLTISSLQPEDFATYYCHQYHRSPPTFGQGTKLEIKR
Kd [5]: 10.8 nM
binding result [6]: no binding (tested: 1000 ng/mL)

B7: anti-CLDN4 (hKM3900)/anti-CD137 scFv bispecific antibody hKM3900_tA2-32_S (bispecific antibody)
heavy (part 1 of 2): B5 heavy (part 1 of 2)
heavy (part 2 of 2): QVQLQESGPGLVKPSETLSLTCTVSGGSISGYYWSWIRQPPGKCLEWIGYIYYSGFTNYNPSLKSRVTISVDTSKNQFSLKLSSVTAADTAVYYCTRDHSHYYYMDVWGQGTTVTVSSGGGGSGGGGSGGGGSQSVLTQPPSASGTPGQRVTISCSGSSSNIGSNTVNWYQQFPGTAPKLLIYSNNQRPSGVPDRFSGSKSGTSASLAISGLQSEDEADYYCAGWDDSLNGPVFGCGTKLTVLG
light: B5 light
notes: as for B5
EC50 (read off the curve) [3]: ~10 ng/mL

B8: anti-CLDN4 (hKM3900)/anti-CD137 scFv bispecific antibody hKM3900_tA2-32 (bispecific antibody)
heavy (part 1 of 2): B5 heavy (part 1 of 2)
heavy (part 2 of 2): B7 heavy (part 2 of 2)
light: B5 light
notes: as for B5
EC50 (read off the curve) [4]: ~10 ng/mL

B10: anti-CLDN4 (hKM3900)/anti-CD137 scFv bispecific antibody hKM3900_3-34-j6_S (bispecific antibody)
heavy (part 1 of 2): B5 heavy (part 1 of 2)
heavy (part 2 of 2): EVQLLESGGGLVQPGESLRLSCKAFGYTFTNHHINWVRQAPGKCLEWVGYINPYNDYTTFNDKFKDRFTLSVDKSKSTAYLQMNSLRAEDTAVYYCARTWGHWYFDLWGQGTLVTVSSGGGGSGGGGSGGGGSNIQMTQSPSSLSASVGDRVTITCRASQSVSSNLAWYQQKPGKAPKLLIYDSSTRATGVPSRFSGSGSGTDFTLTISSLQPEDFATYYCQQYNNWPPWTFGCGTKLEIKR
light: B5 light
notes: scFv at the heavy chain C-terminus; Fc mutation P331S with L234A and L235A; not shown: human IgG1 heavy chain constant region; mutation positions by EU index; GS linker
EC50 (read off the curve) [3]: ~10 ng/mL

B11: anti-CLDN4 (hKM3900)/anti-CD137 scFv bispecific antibody hKM3900_tA2-32LH (bispecific antibody, human IgG1, kappa, L234A L235A)
heavy: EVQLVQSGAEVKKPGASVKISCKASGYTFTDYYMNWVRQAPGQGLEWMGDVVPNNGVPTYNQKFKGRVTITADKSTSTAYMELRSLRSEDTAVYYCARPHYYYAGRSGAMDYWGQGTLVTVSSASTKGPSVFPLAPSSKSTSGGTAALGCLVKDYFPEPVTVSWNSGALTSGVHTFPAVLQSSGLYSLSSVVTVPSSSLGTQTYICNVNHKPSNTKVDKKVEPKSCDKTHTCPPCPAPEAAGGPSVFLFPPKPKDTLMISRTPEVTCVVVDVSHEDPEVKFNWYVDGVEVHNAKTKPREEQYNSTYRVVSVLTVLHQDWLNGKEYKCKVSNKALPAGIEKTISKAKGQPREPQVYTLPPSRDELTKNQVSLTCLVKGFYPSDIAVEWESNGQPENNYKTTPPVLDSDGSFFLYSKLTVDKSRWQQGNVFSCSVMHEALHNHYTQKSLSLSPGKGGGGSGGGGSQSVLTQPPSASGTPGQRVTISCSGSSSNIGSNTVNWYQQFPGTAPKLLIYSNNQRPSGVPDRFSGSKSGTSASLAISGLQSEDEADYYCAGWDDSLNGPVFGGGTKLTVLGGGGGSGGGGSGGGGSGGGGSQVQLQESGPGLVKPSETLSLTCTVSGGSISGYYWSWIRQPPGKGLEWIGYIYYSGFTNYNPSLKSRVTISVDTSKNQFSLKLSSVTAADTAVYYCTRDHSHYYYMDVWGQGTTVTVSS
light: B5 light
notes: The heavy chain entry holds the hKM3900 heavy chain (L234A, L235A, P331G), the linker and the tA2-32LH scFv
Kd [5]: 10.8 nM
Kd [7]: 5.84 nM
koff [7]: 0.00219 s⁻¹
kon [7]: 374000 M⁻¹ s⁻¹
Kd [8]: 6.68 nM
koff [8]: 0.00192 s⁻¹
kon [8]: 288000 M⁻¹ s⁻¹
EC50 (read off the curve) [6]: ~8 ng/mL
EC50 (read off the curve) [4]: ~10 ng/mL

B12: anti-CLDN4 (hKM3900)/anti-CD137 scFv bispecific antibody hKM3900_tA2-48 (bispecific antibody)
heavy (part 1 of 2): B5 heavy (part 1 of 2)
heavy (part 2 of 2): QVQLQESGPGLVKPSETLSLTCTVSGGSISSYYWSWIRQPPGKCLEWIGYIYYSGYTNYNPSLKSRVNISVDTSQNQFSLKLNSLTAADTAVYYCARTHSYYYGMDVWGQGTTVTVSSGGGGSGGGGSGGGGSQSVLTQPPSASGTPGQRVTISCSGSSSNIGNNPVNWYQQFPGTAPKLLIYSNNQRPSGVPDRFSGSKSGTSASLAISGLQSEDEADYYCEAWDDSLNGPVFGCGTKLTVLG
light: B5 light
notes: as for B5
EC50 (read off the curve) [4]: ~10 ng/mL

B14: anti-CD137 antibody A2-32 (antibody, V domains shown)
VH: QVQLQESGPGLVKPSETLSLTCTVSGGSISGYYWSWIRQPPGKGLEWIGYIYYSGFTNYNPSLKSRVTISVDTSKNQFSLKLSSVTAADTAVYYCTRDHSHYYYMDVWGQGTTVTVSS
VL: not shown
notes: Purified from a hybridoma derived from an AlivaMab mouse
binding result [1]: binds
binding result [2]: binds

Continued, values first:

binding result [1]: binds
binding result [2]: binds
B1: anti-CD137 antibody 3-34 (antibody, V domains shown)
VH: QVQLQQSEAELVRPGASVKISCKAFGYTFTNHHINWVKQRPGQGLDWIGYINPYNDYTTFNRKFKDKATLTVHKSSSTAYMELSGLTSDDSAVYYCARTWGHWYFDLWGRGTVVTVSS
VL: EIVMTQSPATLSVSPGERATLSCRASQSVSSNLAWYQQKPGQAPRLLIYDSSTRATGIPARFSGSGSGTDFTLTISSLQSEDFAVYYCQQYNNWPPWTFGQGTKVEIKR
notes: Purified from a hybridoma derived from a VelocImmune mouse (human variable, mouse constant regions)

binding result [1]: binds
binding result [2]: binds
B2: anti-CD137 antibody A2-73 (antibody, V domains shown)
VH: QVQLQESGPGLVKPSETLSLTCTVSGGSISSYYWTWIRQPPGKGLELVGYIYYSGYTSYNPSLKSRVTISIDTSKNQFSLQLNSVTAADTAVYFCARDDYGGNGYYGVDVWGQGTTVTVSS
VL: not shown
notes: as for B14

EC50 (read off the curve) [3]: ~10 ng/mL
B3: anti-CLDN4 (hKM3900)/anti-CD137 scFv bispecific antibody hKM3900_tA2-32LH_S (bispecific antibody)
heavy (part 1 of 2): B5 heavy (part 1 of 2)
heavy (part 2 of 2): QSVLTQPPSASGTPGQRVTISCSGSSSNIGSNTVNWYQQFPGTAPKLLIYSNNQRPSGVPDRFSGSKSGTSASLAISGLQSEDEADYYCAGWDDSLNGPVFGGGTKLTVLGGGGGSGGGGSGGGGSGGGGSQVQLQESGPGLVKPSETLSLTCTVSGGSISGYYWSWIRQPPGKGLEWIGYIYYSGFTNYNPSLKSRVTISVDTSKNQFSLKLSSVTAADTAVYYCTRDHSHYYYMDVWGQGTTVTVSS
light: B5 light
notes: as for B5

EC50 (read off the curve) [4]: ~10 ng/mL
B4: anti-CLDN4 (hKM3900)/anti-CD137 scFv bispecific antibody hKM3900_tA2-73 (bispecific antibody)
heavy (part 1 of 2): B5 heavy (part 1 of 2)
heavy (part 2 of 2): B5 heavy (part 2 of 2)
light: B5 light
notes: as for B5

EC50 (read off the curve) [3]: ~10 ng/mL
B9: anti-CLDN4 (hKM3900)/anti-CD137 scFv bispecific antibody hKM3900_tA2-48_S (bispecific antibody)
heavy (part 1 of 2): B5 heavy (part 1 of 2)
heavy (part 2 of 2): B12 heavy (part 2 of 2)
light: B5 light
notes: as for B5

binding result [1]: binds
binding result [2]: binds
B13: anti-CD137 antibody A2-48 (antibody, V domains shown)
VH: B14 VH with G31S, F56Y, T68N, K75Q, S83N, V85L, T96A, D98T, H101Y, Y104G
VL: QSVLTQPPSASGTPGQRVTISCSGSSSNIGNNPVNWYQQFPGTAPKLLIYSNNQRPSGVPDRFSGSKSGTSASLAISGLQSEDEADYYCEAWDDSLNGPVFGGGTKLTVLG
notes: as for B14

Reference: patent US20250154272A1 (Astellas, published 2025)
